The values below come from IntAct's records for PubMed 29039417.

B1: Protein PTHB1 (Homo sapiens), Q3SYG4 (parent)
chain: MSLFKARDWWSTILGDKEEFDQGCLCLANVDNSGNGQDKIIVGSFMGYLRIFSPHPAKTGDGAQAEDLLLEVDLRDPVLQVEVGKFVSGTEMLHLAVLHSRKLCVYSVSGTLGNVEHGNQCQMKLMYEHNLQRTACNMTYGSFGGVKGRDLICIQSMDGMLMVFEQESYAFGRFLPGFLLPGPLAYSSRTDSFLTVSSCQQVESYKYQVLAFATDADKRQETEQQKLGSGKRLVVDWTLNIGEQALDICIVSFNQSASSVFVLGERNFFCLKDNGQIRFMKKLDWSPSCFLPYCSVSEGTINTLIGNHNNMLHIYQDVTLKWATQLPHIPVAVRVGCLHDLKGVIVTLSDDGHLQCSYLGTDPSLFQAPNVQSRELNYDELDVEMKELQKIIKDVNKSQGVWPMTEREDDLNVSVVVSPNFDSVSQATDVEVGTDLVPSVTVKVTLQNRVILQKAKLSVYVQPPLELTCDQFTFEFMTPDLTRTVSFSVYLKRSYTPSELEGNAVVSYSRPTDRNPDGIPRVIQCKFRLPLKLICLPGQPSKTASHKITIDTNKSPVSLLSLFPGFASQSDDDQVNVMGFHFLGGARITVLASKTSQRYRIQSEQFEDLWLITNELILRLQEYFEKQGVKDFACSFSGSIPLQEYFELIDHHFELRINGEKLEELLSERAVQFRAIQRRLLARFKDKTPAPLQHLDTLLDGTYKQVIALADAVEENQGNLFQSFTRLKSATHLVILLIALWQKLSADQVAILEAAFLPLQEDTQELGWEETVDAAISHLLKTCLSKSSKEQALNLNSQLNIPKDTSQLKKHITLLCDRLSKGGRLCLSTDAAAPQTMVMPGGCTTIPESDLEERSVEQDSTELFTNHRHLTAETPRPEVSPLQGVSE
partner: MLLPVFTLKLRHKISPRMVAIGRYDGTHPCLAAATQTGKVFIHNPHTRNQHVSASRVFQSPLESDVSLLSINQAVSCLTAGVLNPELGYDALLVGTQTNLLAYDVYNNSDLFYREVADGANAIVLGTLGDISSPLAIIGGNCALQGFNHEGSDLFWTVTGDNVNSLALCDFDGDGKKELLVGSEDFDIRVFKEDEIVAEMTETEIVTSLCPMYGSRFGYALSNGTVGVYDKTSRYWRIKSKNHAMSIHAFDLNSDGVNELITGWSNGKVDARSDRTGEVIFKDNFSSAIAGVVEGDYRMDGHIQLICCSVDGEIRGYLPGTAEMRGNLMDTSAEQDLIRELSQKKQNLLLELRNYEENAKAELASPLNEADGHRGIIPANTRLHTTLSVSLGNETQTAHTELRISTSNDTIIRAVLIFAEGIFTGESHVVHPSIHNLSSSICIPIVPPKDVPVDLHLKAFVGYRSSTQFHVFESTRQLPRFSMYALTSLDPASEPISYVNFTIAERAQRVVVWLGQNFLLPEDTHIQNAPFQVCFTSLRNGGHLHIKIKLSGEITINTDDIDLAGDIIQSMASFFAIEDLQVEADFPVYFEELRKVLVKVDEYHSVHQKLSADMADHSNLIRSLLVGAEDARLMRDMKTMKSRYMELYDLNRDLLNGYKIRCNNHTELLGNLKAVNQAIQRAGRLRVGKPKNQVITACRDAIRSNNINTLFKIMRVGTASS

This assay covers variants of B1. The settings on record: with bbs2_human BBS2, Q9BXC9.
For L591A, the “effect of a mutation on the interaction” value is “with no effect”.

In the case of L591E, the “effect of a mutation on the interaction” value is given as “with no effect”. In the case of L591K it was “with no effect”. In the case of E622K it was “with no effect”; in that of E622A, “with no effect”. In the case of R600E it was “with no effect”; in that of R600A, “with no effect”. For the variant R600G, the “effect of a mutation on the interaction” value is given as “disrupting interaction strength”. Next, R600K: “with no effect”. Next, I612A: “with no effect”; I612K: “with no effect”; I612E: “with no effect”.

Consider F580K, for which the “effect of a mutation on the interaction” value is “with no effect”. In the case of F580E it was “with no effect”; in that of F580A, “with no effect”; in that of K594E, “with no effect”. In the case of K594A it was “with no effect”.

For the variant L609E, the “effect of a mutation on the interaction” value is given as “with no effect”.

Regarding L609K, the “effect of a mutation on the interaction” value is recorded as “with no effect”. Next, L609A: “with no effect”. In the case of T613E it was “with no effect”; in that of T613K, “with no effect”; in that of T613I, “disrupting interaction strength”. Next, T613A: “with no effect”; L583A: “with no effect”. Regarding L583K, the “effect of a mutation on the interaction” value is listed as “with no effect”. In the case of L583E it was “with no effect”.

On to V590A, for which the “effect of a mutation on the interaction” value is listed as “with no effect”. With V590K, the “effect of a mutation on the interaction” value is given as “with no effect”. In the case of V590E it was “with no effect”; in that of N614A, “with no effect”. With N614K, the “effect of a mutation on the interaction” value is “with no effect”. In the case of N614E it was “with no effect”; in that of D572K, “with no effect”; in that of D572A, “with no effect”. Next, D572E: “with no effect”; M578K: “disrupting interaction strength”; M578E: “with no effect”. Next, M578A: “with no effect”; S596K: “with no effect”; S596A: “with no effect”. As to S596E, the “effect of a mutation on the interaction” value is “with no effect”. Next, I617K: “with no effect”.

I617A: the “effect of a mutation on the interaction” value is given as “with no effect”. Next, I617E: “with no effect”; V575K: “with no effect”. Next, V575E: “with no effect”; V575A: “with no effect”; Q574A: “with no effect”.

As to Q574L, the “effect of a mutation on the interaction” value is on record as “disrupting interaction strength”. For the variant Q574E, the “effect of a mutation on the interaction” value is on record as “with no effect”. In the case of Q574K it was “with no effect”; in that of G579A, “with no effect”.

For G579E, the “effect of a mutation on the interaction” value is “with no effect”. Next, G579K: “with no effect”; E625A: “with no effect”; E625K: “with no effect”. On to I588E, for which the “effect of a mutation on the interaction” value is “with no effect”. In the case of I588A it was “with no effect”; in that of I588K, “with no effect”. Next, D608A: “with no effect”. In the case of D608K it was “with no effect”; in that of D608E, “with no effect”; in that of K626E, “with no effect”. For K626A, the “effect of a mutation on the interaction” value is listed as “with no effect”. Next, D571E: “with no effect”; D571A: “with no effect”.

For the variant D571K, the “effect of a mutation on the interaction” value is listed as “with no effect”.

S593K: the “effect of a mutation on the interaction” value was “with no effect”. In the case of S593E it was “with no effect”. Next, S593A: “with no effect”; R598A: “with no effect”; R598E: “with no effect”. In the case of R598L it was “disrupting interaction strength”; in that of R598K, “with no effect”; in that of G584E, “with no effect”. Consider G584K, for which the “effect of a mutation on the interaction” value is on record as “with no effect”.

For G584A, the “effect of a mutation on the interaction” value is “with no effect”. Take S603K: the “effect of a mutation on the interaction” value was “with no effect”. For the variant S603A, the “effect of a mutation on the interaction” value was “with no effect”. In the case of S603E it was “with no effect”; in that of R587E, “with no effect”. Next, R587A: “with no effect”.

For R587K, the “effect of a mutation on the interaction” value is on record as “with no effect”. On to R587T, for which the “effect of a mutation on the interaction” value is on record as “disrupting interaction strength”. Next, R619E: “with no effect”; R619K: “with no effect”. Next, R619A: “with no effect”; T595E: “with no effect”. Next, T595A: “with no effect”.

For T595I, the “effect of a mutation on the interaction” value is on record as “disrupting interaction strength”. In the case of T595S it was “disrupting interaction strength”; in that of T595K, “with no effect”; in that of Y599K, “with no effect”. On to Y599A, for which the “effect of a mutation on the interaction” value was “with no effect”. In the case of Y599E it was “with no effect”. Next, N576A: “with no effect”; N576E: “with no effect”; N576K: “with no effect”. Take A592K: the “effect of a mutation on the interaction” value was “with no effect”. Next, A592E: “with no effect”; Q627K: “with no effect”.

Consider Q627A, for which the “effect of a mutation on the interaction” value is “with no effect”.

As to Q627E, the “effect of a mutation on the interaction” value is listed as “with no effect”.

Turning to W610E, the “effect of a mutation on the interaction” value is “with no effect”. Next, W610A: “with no effect”; W610K: “with no effect”. Take F606E: the “effect of a mutation on the interaction” value is on record as “with no effect”. Next, F606A: “with no effect”. Next, F606K: “with no effect”; H581Y: “disrupting interaction strength”; H581K: “with no effect”. In the case of H581A, the “effect of a mutation on the interaction” value is on record as “with no effect”. In the case of H581P it was “disrupting interaction strength”; in that of H581E, “with no effect”. Next, S570K: “with no effect”; S570E: “with no effect”; S570A: “with no effect”. In the case of G585R it was “disrupting interaction strength”. Take G585E: the “effect of a mutation on the interaction” value is reported as “with no effect”. Next, G585A: “with no effect”; G585K: “with no effect”; D573E: “with no effect”. In the case of D573A it was “with no effect”. Next, D573K: “with no effect”.

For E604A, the “effect of a mutation on the interaction” value is “with no effect”.

Regarding E604K, the “effect of a mutation on the interaction” value is “with no effect”.

As to A586E, the “effect of a mutation on the interaction” value is on record as “with no effect”. Next, A586K: “with no effect”.

For E615A, the “effect of a mutation on the interaction” value is reported as “with no effect”. In the case of E615K it was “with no effect”. Next, Y623A: “with no effect”.

Regarding Y623K, the “effect of a mutation on the interaction” value was “with no effect”.

On to Y623E, for which the “effect of a mutation on the interaction” value is reported as “with no effect”.

With Q569K, the “effect of a mutation on the interaction” value is “with no effect”. In the case of Q621A it was “with no effect”; in that of Q621K, “with no effect”. Next, Q621E: “with no effect”; Q602A: “with no effect”.

Turning to Q602E, the “effect of a mutation on the interaction” value is listed as “with no effect”. Regarding Q602K, the “effect of a mutation on the interaction” value is listed as “with no effect”.

Q602L: the “effect of a mutation on the interaction” value is “disrupting interaction strength”. With F624E, the “effect of a mutation on the interaction” value is recorded as “with no effect”. Next, F624K: “with no effect”; F624N: “disrupting interaction strength”. Next, F624A: “with no effect”; Q597A: “with no effect”; Q597R: “disrupting interaction strength”. Next, Q597E: “with no effect”. For the variant Q597K, the “effect of a mutation on the interaction” value is “with no effect”.

For the variant E607K, the “effect of a mutation on the interaction” value is given as “with no effect”. For E607A, the “effect of a mutation on the interaction” value is on record as “with no effect”.

Take F582K: the “effect of a mutation on the interaction” value is recorded as “with no effect”. For the variant F582E, the “effect of a mutation on the interaction” value is listed as “with no effect”.

Consider F582A, for which the “effect of a mutation on the interaction” value is listed as “with no effect”. In the case of V577K it was “with no effect”; in that of V577A, “with no effect”. Turning to V577E, the “effect of a mutation on the interaction” value was “with no effect”. In the case of Q605E it was “with no effect”; in that of Q605A, “with no effect”. Next, Q605K: “with no effect”; L611A: “with no effect”; L611K: “with no effect”.

L611E: the “effect of a mutation on the interaction” value is recorded as “with no effect”. Next, T589S: “disrupting interaction strength”. Next, T589K: “with no effect”; T589A: “with no effect”; T589E: “with no effect”.

Regarding I601K, the “effect of a mutation on the interaction” value is listed as “with no effect”. In the case of I601A it was “with no effect”. Next, I601E: “with no effect”; L618E: “with no effect”. Next, L618A: “with no effect”; L618K: “with no effect”. With L616E, the “effect of a mutation on the interaction” value was “with no effect”.

Take L616K: the “effect of a mutation on the interaction” value was “with no effect”.

In the case of L616A, the “effect of a mutation on the interaction” value is “with no effect”. In the case of L620E it was “with no effect”; in that of L620K, “with no effect”. Next, L620A: “with no effect”.
